The DeepSol protein solubility set

assay: soluble on expression in E. coli; label from the status in PepcDB or PDB records

Row | Sequence | soluble on expression in E. coli
1 | MSLTSKNQFYKPGMLVPVFSAAGLLKNGRYQFLLQQIETLSLLPTEQYAQLYEALVYRFVEFVQVLPIRLDEPLCSLMNEGLLRGVNSLNHYIQNHPEATPLERYALFSAGLLLEVAHAVVNQKIFITDEEGNFIKQWNPFSGPLIDDVETKHYKIMPLSSYYQRNIPSITPILVRQLLPDEGFLWLTSDMRVFSDWMQALRDDEGEGGGRFEHVLQLFKHKNIDGLFNTLPALPVNLQDSPATAHADAFLNWLKEALATNQIKVNTSDAGVHVIPEGVFLEKTGIFKQYIDLHVNVPVNLFTVYQQFGNLFGLTKLSGIDYRFEQLFSEYPDALKRKSKMGFAGLIGIRRASPTREGVLIADPNLIFTRGEIPSATSYLKLSSAQKSQNIPMTEGHHHHHH | soluble
2 | MTPYAFTDPRKSELYVVEGDSAGGSAKSGRDSMFQAILPLRGKIINVEKARIDRVLKNTEVQAIITALGTGIHDEFDIGKLRYHKIVLMADADVDGQHISTLLLTLLFRFMRPLIENGHVFLAQPPLYKLKWQRSDPEFAYSDRERDGLLEAGLKAGKKINKEDGIQRYKGLGEMDAKELWETTMDPSVRVLRQVTLDDAAAADELFSILMGEDVDARRSFITRNAKDVRFLDVKLAAALEHHHHHH | soluble
3 | MNSTHHYEQLIEIFNSCFADDFNTRLIKGDDEPIYLPADAEVPYNRIVFAHGFYASAIHEISHWCIAGKARREQVDFGYWYCPDGRDAQTQSQFEDVEVKPQALDWLFCVAAGYPFNVSCDNLEGDFEPDRVVFQRRVHAQVMDYLTNGIPERPARFIKALQNYYHTPELTAEQFPWPEALN | soluble
4 | MSLFTNLVKMGKKLKNLTKKYQLNKEKIEKFITVRKRLTFLGERPSVVEKPVVVKFGGTSVRYAFEEALELVANLNENTRTIVVVSALAGVTDCLLRLANGDMSALLEIEEIHEELSQELDVQLDHLMYQLHKTLNSKSSFPSKEAFVDEIASFGERFSAELFSEGLKILGINAKAVDSKDILFAKGDYGNAEVDFKKSVYGAGILYRMLRRGIVPVVTGYYGNLNGFRATFGRGGSDYSATSIARLVNAKATLIMSDVEGIYTADPKLVPSAKLIHYISYREAKIAAKLGMKALHHRAIDPVEGRIPVILGKTRDLKFGTLISHKSQGIPVVVHKLIEDHAEVSVVSTRRSFSLPYEVYEEGDFYFKIKIPKEQFLEVLKDIHRRVVENESLRPSYDSELWAWVEGHHHHHH | not soluble
5 | MRLRLLSLPFILSLCAPLLPLNTLAAERIVTIGGDVTEIAYALGAGDEIVARDSTSQQPQAAQKLPDVGYMRTLNAEGILAMKPTMLLVSELAQPSLVLTQIASSGVNVVTVPGQTTPESVAMKINAVATALHQTEKGQKLIEDYQQRLAAVNKTPLPVKVLFVMSHGGLTPMAAGQNTAADAMIRAAGGSNAMQGFSRYRPLSQEGVIASAPDLLLITTDGVKALGSSENIWKLPGMALTPAGKHKRLLVVDDMALLGFGLETPQVLAQLREKMEQMQ | not soluble
6 | MWKMLSSEYSILLIDDDADVLDAYTQLLEQSGYRVFACNNPFEAQAWIQPDWPGIVLSDVCMPGCSGIDLMMLFHQDDQQLPILLITGHGDVPMAVDAVKKGAWDFLQKPVDPGKLLSLVEEALRQRQSIIARRQYCQQTLQVELIGRSEWINQYRRRLQQLSETDIAVWLYGAPGTGRMTGARYLHQFGRNAQGEFVYRELTPDNAPQLNDFIALAQGGTLVLSHPEHLTREQQYHLVQLQSQEHRPFRLIGIGDTSLVELAASNHIIAELYYCFAMTQIACLPLTQRPDDIEPLFRHYLCKACQRLNHPVPEVGKEMLKEMMRRMWPNNVRELANAAELFTVGVLPLAETANPLMHVGTPTPLDRRVEDAERQIITEALNIHQGRINEVAEYLQIPRKKLYLRMKKYGLSKEHYKI | not soluble
7 | MGSDKIHHHHHHMTNIILICVDQMRADTIRILGNPSIITPNLDALSLNSVVFSNHFSAGSPCSPARTSLLTGQYPATHGSITKNHRLKSTTNLALEIKKIGLSSTLFGFTDTVIPPYIQEKEGIMPGFDVQCYMNLHNIGLSGWAKELQKKGYHVLPNIMDIYRAEKAPYNYHDSDTAFLTDQVINYVASQGQEFGFIHLSYFRPHPPFIAPAPYSEYYPEVNCQKPEVDLETFLSMHPFHECLFHQLYKNTFNNLSYKQIESILTERFSRDKRAYYGLITELDYHLGRLITFLKDKGVYDETLLIFTSDHGELLGDKWLYEKGGYFDQSFHVPLLIKPPKALRSKQEGKIVDSFTSSIDLMPTILDIINAPIPESVEGLSLAELLSDGKNDSTRKDIIYEHYTTLPTKQLNRTLTIKDESFKYVYCSQFEHLLFDLKSDPDELKNLATESKHLNTVAYYQDRLRAEKLL | not soluble
